Assay results taken from patent US20210253718A1, “FRIZZLED5 PROTEIN-BINDING AGENTS” (Modmab Therapeutics Corporation, priority 2016, published 2021).
Substitutions are numbered along the chain they refer to.

T1: FZD3 CRD (Homo sapiens, UniProt Q9NPG1)
T1 construct: CRD of FZD1, FZD2, FZD3, FZD4, FZD5, FZD6, FZD7, FZD8, FZD9 or FZD10; GPI anchor signal (C); expressed in transfected cells; host or cells: CHO cells, lentiviral pLenti-puro
T1 sequence (Q9NPG1 23-136 limits assumed): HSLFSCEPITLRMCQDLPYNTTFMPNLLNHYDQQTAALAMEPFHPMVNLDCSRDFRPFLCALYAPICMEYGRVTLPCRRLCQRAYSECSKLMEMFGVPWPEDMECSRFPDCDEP

T2: FZD5 CRD (Homo sapiens, UniProt Q13467)
T2 construct: K29-T156; GPI anchor signal (C); expressed in transfected cells; host or cells: CHO cells, lentiviral pLenti-puro
T2 sequence (Q13467 29-156): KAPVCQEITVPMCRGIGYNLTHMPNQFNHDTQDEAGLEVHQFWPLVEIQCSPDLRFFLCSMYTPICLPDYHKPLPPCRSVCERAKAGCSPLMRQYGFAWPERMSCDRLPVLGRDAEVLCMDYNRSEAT

T3: FZD6 CRD (Homo sapiens, UniProt O60353)
T3 construct: S20-P146; GPI anchor signal (C); expressed in transfected cells; host or cells: CHO cells, lentiviral pLenti-puro
T3 sequence (O60353 20-146): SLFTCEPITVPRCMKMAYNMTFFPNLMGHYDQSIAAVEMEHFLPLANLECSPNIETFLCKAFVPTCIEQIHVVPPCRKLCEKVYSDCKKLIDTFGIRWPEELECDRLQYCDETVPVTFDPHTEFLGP

T4: FZD8 CRD (Homo sapiens, UniProt Q9H461)
T4 construct: K31-D155; GPI anchor signal (C); expressed in transfected cells; host or cells: CHO cells, lentiviral pLenti-puro
T4 sequence (Q9H461 31-155): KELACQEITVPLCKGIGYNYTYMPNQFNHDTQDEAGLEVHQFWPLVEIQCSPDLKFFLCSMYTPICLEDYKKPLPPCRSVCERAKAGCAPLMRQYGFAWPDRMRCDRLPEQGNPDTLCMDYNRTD

T5: FZD9 CRD (Homo sapiens, UniProt O00144)
T5 construct: G35-A161; GPI anchor signal (C); expressed in transfected cells; host or cells: CHO cells, lentiviral pLenti-puro
T5 sequence (O00144 35-161): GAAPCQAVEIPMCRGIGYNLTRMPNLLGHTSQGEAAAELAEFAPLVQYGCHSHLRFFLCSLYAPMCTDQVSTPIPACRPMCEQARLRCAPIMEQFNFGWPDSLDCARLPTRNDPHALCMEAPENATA

B1: Fab-2930: anti-FZD5 Fab with antibody variable region Fv-2930; CDR SEQ ID NOs: 35, 36, 69, 107, 145, 153 (antibody, V domains shown)
VH: EVQLVESGGGLVQPGGSLRLSCAASGFNLSYYYIHWVRQAPGKGLEWVASIYPYSGSTSYADSVKGRFTISADTSKNTAYLQMNSLRAEDTAVYYCARGALDYWGQGTLVTVSS
VL: DIQMTQSPSSLSASVGDRVTITCRASQSVSSAVAWYQQKPGKAPKLLIYSASSLYSGVPSRFSGSRSGTDFTLTISSLQPEDFATYYCQQWYGPYLITFGQGTKVEIK
B2: Fab-2934: anti-FZD5 Fab with antibody variable region Fv-2934; CDR SEQ ID NOs: 35, 36, 73, 110, 149, 155 (antibody, V domains shown)
VH: B1 VH with L29I, Y32S, I34M, P53S, Y54S, L101I
VL: B1 VL with G93H, P94Y, Y95G
B3: Fab-2933: anti-FZD5 Fab with antibody variable region Fv-2933; CDR SEQ ID NOs: 35, 36, 72, 109, 148, 177 (antibody, V domains shown)
VH: EVQLVESGGGLVQPGGSLRLSCAASGFNLYSSYMHWVRQAPGKGLEWVASIYSSYGYTSYADSVKGRFTISADTSKNTAYLQMNSLRAEDTAVYYCARTVRGSKKPYFSGWAMDYWGQGTLVTVSS
VL: DIQMTQSPSSLSASVGDRVTITCRASQSVSSAVAWYQQKPGKAPKLLIYSASSLYSGVPSRFSGSRSGTDFTLTISSLQPEDFATYYCQQFWWYASWLFTFGQGTKVEIK
B4: Fab-2927: anti-FZD5 Fab with antibody variable region Fv-2927; CDR SEQ ID NOs: 35, 36, 66, 104, 142, 174 (antibody, V domains shown)
VH: EVQLVESGGGLVQPGGSLRLSCAASGFNIYYSSMHWVRQAPGKGLEWVASIYPSYGYTSYADSVKGRFTISADTSKNTAYLQMNSLRAEDTAVYYCARYGYYGFDYWGQGTLVTVSS
VL: DIQMTQSPSSLSASVGDRVTITCRASQSVSSAVAWYQQKPGKAPKLLIYSASSLYSGVPSRFSGSRSGTDFTLTISSLQPEDFATYYCQQWGSHGYLITFGQGTKVEIK
B5: Fab-2935: anti-FZD5 Fab with antibody variable region Fv-2935; CDR SEQ ID NOs: 35, 36, 74, 111, 150, 178 (antibody, V domains shown)
VH: B1 VH with L29I, S30Y, Y54S, G99A, L101F
VL: B4 VL with G92Y, S93G, H94G, G95Y, Y96A
B6: Fab-2929: anti-FZD5 Fab with antibody variable region Fv-2929; CDR SEQ ID NOs: 35, 36, 68, 106, 144, 162 (antibody, V domains shown)
VH: B1 VH with L29I, Y54S, G56S, L101M
VL: B4 VL with G92Y, H94S, G95Y, Y96G
B7: Fab-2932: anti-FZD5 Fab with antibody variable region Fv-2932; CDR SEQ ID NOs: 35, 36, 71, 108, 147, 153 (antibody, V domains shown)
VH: B1 VH with L29I, Y32S, I34M, P53S, Y54S, S55Y, G56S
VL: B4 VL with G92Y, S93G, H94S, G95F, Y96A
B8: Fab-2928: anti-FZD5 Fab with antibody variable region Fv-2928; CDR SEQ ID NOs: 35, 36, 67, 105, 143, 175 (antibody, V domains shown)
VH: EVQLVESGGGLVQPGGSLRLSCAASGFNISYSSIHWVRQAPGKGLEWVASIYPSYSSTYYADSVKGRFTISADTSKNTAYLQMNSLRAEDTAVYYCARYYAMDYWGQGTLVTVSS
VL: DIQMTQSPSSLSASVGDRVTITCRASQSVSSAVAWYQQKPGKAPKLLIYSASSLYSGVPSRFSGSRSGTDFTLTISSLQPEDFATYYCQQAFYYPITFGQGTKVEIK

Biological target: T6, FZD1 CRD (Homo sapiens, UniProt Q9UP38)
T6 construct: D112-P238; GPI anchor signal (C); expressed in transfected cells; host or cells: CHO cells, lentiviral pLenti-puro
Test: Immunofluorescence of anti-FZD5 Fab binding to CHO cells overexpressing Frizzled CRD
Parameters: key: −: no binding; +: very weak binder; ++: weak binder; +++: good binder; ++++: very good binder
Procedure, shortened: (§1)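 Specificity of anti-FZD5 Fabs was tested on CHO cells displaying membrane-anchored Frizzled CRDs (myc-tagged, GPI-linked), one family member per line. Detection was by immunofluorescence.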

Immunofluorescence binding, Frizzled CRD overexpressed on CHO cells: FZD1 | Molecule
− | B1
− | B2
+ | B3
+++ | B4
− | B5
− | B6
− | B7
− | B8

Biological target: T1, FZD3 CRD
Test: as above
Parameters: key: −: no binding; +: very weak binder; ++: weak binder; +++: good binder; ++++: very good binder
Procedure, shortened: as §1

Immunofluorescence binding, Frizzled CRD overexpressed on CHO cells: FZD3 | Molecule
− | B1
− | B2
− | B3
− | B4
− | B5
− | B6
− | B7
− | B8

Biological target: T2, FZD5 CRD
Test: as above
Parameters: key: −: no binding; +: very weak binder; ++: weak binder; +++: good binder; ++++: very good binder
Procedure, shortened: as §1

Immunofluorescence binding, Frizzled CRD overexpressed on CHO cells: FZD5 | Molecule
++++ | B1
++++ | B2
++++ | B3
++++ | B4
++++ | B5
++++ | B6
++++ | B7
++++ | B8

Biological target: T3, FZD6 CRD
Test: as above
Parameters: key: −: no binding; +: very weak binder; ++: weak binder; +++: good binder; ++++: very good binder
Procedure, shortened: as §1

Immunofluorescence binding, Frizzled CRD overexpressed on CHO cells: FZD6 | Molecule
− | B1
− | B2
− | B3
− | B4
− | B5
− | B6
− | B7
− | B8

Biological target: T7, FZD7 CRD (Homo sapiens, UniProt O75084)
T7 construct: D45-S169; GPI anchor signal (C); expressed in transfected cells; host or cells: CHO cells, lentiviral pLenti-puro
Test: as above
Parameters: key: −: no binding; +: very weak binder; ++: weak binder; +++: good binder; ++++: very good binder
Procedure, shortened: as §1

Immunofluorescence binding, Frizzled CRD overexpressed on CHO cells: FZD7 | Molecule
+ | B1
− | B2
+ | B3
++++ | B4
− | B5
+ | B6
++ | B7
− | B8

Biological target: T4, FZD8 CRD
Test: as above
Parameters: key: −: no binding; +: very weak binder; ++: weak binder; +++: good binder; ++++: very good binder
Procedure, shortened: as §1

Immunofluorescence binding, Frizzled CRD overexpressed on CHO cells: FZD8 | Molecule
+ | B1
+ | B2
+ | B3
+ | B4
+ | B5
− | B6
+ | B7
− | B8

Biological target: T5, FZD9 CRD
Test: as above
Parameters: key: −: no binding; +: very weak binder; ++: weak binder; +++: good binder; ++++: very good binder
Procedure, shortened: as §1

Immunofluorescence binding, Frizzled CRD overexpressed on CHO cells: FZD9 | Molecule
− | B1
− | B2
− | B3
− | B4
− | B5
− | B6
− | B7
− | B8
